Patent US20220089710A1, “Method of Treating Signs and Symptoms of Osteoarthritis” (Pfizer Inc., priority 2019, published 2022)

Key:
[1] = system: patients with OA of the knee or hip; assay: Example 2: safety, including adjudication of joint safety events; type: in vivo, human
Description: (§1) Key inclusion criteria were Western Ontario and McMaster Universities Osteoarthritis Index (WOMAC) Pain and Physical Function scores in the index joint; a Patient Global Assessment of OA (PGA-OA) score of fair, poor, or very poor; a history of insufficient pain relief or intolerance to acetaminophen, oral NSAID, and either tramadol or opioids (or unwilling to take opioids). […] Co-primary endpoints were change from baseline in WOMAC Pain, WOMAC Physical Function, and PGA-OA scores at week 24 compared with placebo. Three key secondary endpoints were: reduction in the WOMAC Pain subscale of 50%, at Week 24, WOMAC Pain subscale change from Baseline to Week 2, and weekly average pain score (based on daily diary) in the index joint change from Baseline to Week 1. Safety, including adjudication of joint safety events, was assessed.

[2] = system: patients with OA of the knee or hip; assay: Example 2: randomized, double-blind, placebo-controlled study (24-week treatment; SC tanezumab at baseline, week 8, week 16), efficacy; type: in vivo, human; conditions: for WOMAC Pain subscale Change from Baseline: LS Mean / WOMAC Pain subscale Change from Baseline: LS Mean Difference vs. placebo: Week 2; for PGA-OA: LS Mean (SE) change from Baseline / PGA-OA: LS Mean Difference vs. placebo (SE) / WOMAC Pain: LS Mean Difference vs. placebo (SE) / WOMAC Physical Function: LS Mean (SE) change from Baseline / WOMAC Physical Function: LS Mean Difference vs. placebo (SE) / WOMAC Pain: LS Mean (SE) change from Baseline / % of subjects with ≥50% reduction in the WOMAC Pain subscale / Number of subjects with ≥50% reduction in the WOMAC Pain subscale / WOMAC Pain: LS mean difference±SE versus placebo: Week 24; for WOMAC Pain: LS Mean (SE) change from Baseline: ITT, multiple imputation; for % of subjects with ≥50% reduction in the WOMAC Pain subscale / Number of subjects with ≥50% reduction in the WOMAC Pain subscale: mixed BOCF and LOCF
Description: as §1

[3] = system: patients with osteoarthritis (OA) of the knee or hip; assay: Example 3: treatment-emergent adverse events and deaths, Safety Population; conditions: 2.5 mg SC;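 further: seven SC injections given 8 weeks apart plus twice-daily oral study medication up to Week 56, Safety Population of all patients dosed at least once SC, analyzed by treatment actually received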
Description: Patients received a total of seven SC injections, each separated by 8 weeks and daily oral (PO) study medication BID through Week 56.
The Intent-to-Treat (ITT) Population included all patients who were randomized and received at least one dose of SC study drug. This analysis set was primary for all efficacy endpoints, which were analyzed according to randomization assignment. The Safety Population included all patients who received at least one dose of SC study treatment. This analysis set was primary for all safety endpoints, which were analyzed according to treatment received.

tanezumab: humanized immunoglobulin G Type 2 (IgG2) monoclonal antibody directed against human nerve growth factor (NGF); SEQ ID NOs: 9 or 11 and 10
Pre-specified composite joint safety endpoint events: % of patients ([1]; 2.5 mg SC): 1.8%
TJRs: % of patients ([1]; 2.5 mg SC): 7.8%
Treatment-emergent AEs: % of patients ([1]; 2.5 mg SC): 53%
incidence of serious AEs ([1]; 2.5 mg SC): 2.8%
Pre-specified composite joint safety endpoint events: % of patients ([1]; 5 mg SC): 3.2%
TJRs: % of patients ([1]; 5 mg SC): 7.0%
Treatment-emergent AEs: % of patients ([1]; 5 mg SC): 57%
incidence of serious AEs ([1]; 5 mg SC): 3.2%
WOMAC Pain subscale Change from Baseline: LS Mean ([2]; 2.5 mg SC): −2.02
WOMAC Pain subscale Change from Baseline: LS Mean Difference vs. placebo ([2]; 2.5 mg SC): −0.67
PGA-OA: LS Mean (SE) change from Baseline ([2]; 2.5 mg SC): −0.82 (0.06)
PGA-OA: LS Mean Difference vs. placebo (SE) ([2]; 2.5 mg SC): −0.11 (0.07)
WOMAC Pain: LS Mean Difference vs. placebo (SE) ([2]; 2.5 mg SC): −0.46 (0.18)
WOMAC Physical Function: LS Mean (SE) change from Baseline ([2]; 2.5 mg SC): −2.70 (0.17)
WOMAC Physical Function: LS Mean Difference vs. placebo (SE) ([2]; 2.5 mg SC): −0.59 (0.18)
WOMAC Pain: LS Mean (SE) change from Baseline ([2]; 2.5 mg SC): −2.70 (0.17)
% of subjects with ≥50% reduction in the WOMAC Pain subscale ([2]; 2.5 mg SC): (45.4%)
Number of subjects with ≥50% reduction in the WOMAC Pain subscale ([2]; 2.5 mg SC): 128
WOMAC Pain: LS mean difference±SE versus placebo ([2]; 2.5 mg, index joint KL2/3): −0.19±0.23
WOMAC Pain: LS mean difference±SE versus placebo ([2]; 2.5 mg, index joint KL4): −0.84±0.28
WOMAC Pain subscale Change from Baseline: LS Mean ([2]; 5 mg SC): −1.69
WOMAC Pain subscale Change from Baseline: LS Mean Difference vs. placebo ([2]; 5 mg SC): −0.34
PGA-OA: LS Mean (SE) change from Baseline ([2]; 5 mg SC): −0.90 (0.06)
PGA-OA: LS Mean Difference vs. placebo (SE) ([2]; 5 mg SC): −0.19 (0.07)
WOMAC Pain: LS Mean Difference vs. placebo (SE) ([2]; 5 mg SC): −0.62 (0.18)
WOMAC Physical Function: LS Mean (SE) change from Baseline ([2]; 5 mg SC): −2.82 (0.17)
WOMAC Physical Function: LS Mean Difference vs. placebo (SE) ([2]; 5 mg SC): −0.71 (0.17)
WOMAC Pain: LS Mean (SE) change from Baseline ([2]; 5 mg SC): −2.85 (0.17)
% of subjects with ≥50% reduction in the WOMAC Pain subscale ([2]; 5 mg SC): (47.9%)
Number of subjects with ≥50% reduction in the WOMAC Pain subscale ([2]; 5 mg SC): 136
WOMAC Pain: LS mean difference±SE versus placebo ([2]; 5 mg, index joint KL2/3): −0.32±0.23
WOMAC Pain: LS mean difference±SE versus placebo ([2]; 5 mg, index joint KL4): −0.98±0.28
deaths: patients ([3]; during the safety follow-up period): 2
deaths: patients ([3]; during the treatment period): 2
Adverse Event: % of patients ([3]; treatment period): 62.8%
Adverse Event: number of patients ([3]; treatment period): 629
Arthralgia: % of patients ([3]; treatment period): 13.3%
Arthralgia: number of patients ([3]; treatment period): 133
Back pain: % of patients ([3]; treatment period): 3.4%
Back pain: number of patients ([3]; treatment period): 34
Discontinued from study (adverse event): % of patients ([3]; treatment period): 2.3%
Discontinued from study (adverse event): number of patients ([3]; treatment period): 23
Discontinued study drug and continued study (adverse event): % of patients ([3]; treatment period): 5.3%
Discontinued study drug and continued study (adverse event): number of patients ([3]; treatment period): 53
Fall: % of patients ([3]; treatment period): 6.5%
Fall: number of patients ([3]; treatment period): 65
Headache: % of patients ([3]; treatment period): 5.6%
Headache: number of patients ([3]; treatment period): 56
Joint swelling: % of patients ([3]; treatment period): 4.3%
Joint swelling: number of patients ([3]; treatment period): 43
Musculoskeletal pain: % of patients ([3]; treatment period): 4.3%
Musculoskeletal pain: number of patients ([3]; treatment period): 43
Nasopharyngitis: % of patients ([3]; treatment period): 5.7%
Nasopharyngitis: number of patients ([3]; treatment period): 57
Osteoarthritis: % of patients ([3]; treatment period): 3.9%
Osteoarthritis: number of patients ([3]; treatment period): 39
Pain in extremity: % of patients ([3]; treatment period): 3.1%
Pain in extremity: number of patients ([3]; treatment period): 31
Paraesthesia: % of patients ([3]; treatment period): 1.8%
Paraesthesia: number of patients ([3]; treatment period): 18
Peripheral edema: % of patients ([3]; treatment period): 1.9%
Peripheral edema: number of patients ([3]; treatment period): 19
Rapidly progressive osteoarthritis (adverse event): % of patients ([3]; treatment period): 1.8%
Rapidly progressive osteoarthritis (adverse event): number of patients ([3]; treatment period): 18
Serious AE Acute kidney injury: n ([3]; treatment period): 0
Serious AE Acute myocardial infarction: % ([3]; treatment period): 1.0%
Serious AE Acute myocardial infarction: n ([3]; treatment period): 1
Serious AE Arthralgia: % ([3]; treatment period): 0.4%
Serious AE Arthralgia: n ([3]; treatment period): 4
Serious AE Cellulitis: n ([3]; treatment period): 0
Serious AE Cerebrovascular accident: % ([3]; treatment period): 0.2%
Serious AE Cerebrovascular accident: n ([3]; treatment period): 2
Serious AE Gastrointestinal hemorrhage: n ([3]; treatment period): 0
Serious AE Intervetebral disc protrusion: n ([3]; treatment period): 0
Serious AE Meniscus injury: % ([3]; treatment period): 0.1%
Serious AE Meniscus injury: n ([3]; treatment period): 1
